These are literature values, as cited in PMC5711038.

For orientation: Kd means the free concentration of one partner at which half of the binding sites on the other are occupied at equilibrium, for simple one-to-one binding.

This series concerns the target Fbxw7 substrate receptor (Homo sapiens) (UniProt Q969H0). The series can be described thus: FRET.
UniProt Q969H0, sequence (Q969H0 whole entry): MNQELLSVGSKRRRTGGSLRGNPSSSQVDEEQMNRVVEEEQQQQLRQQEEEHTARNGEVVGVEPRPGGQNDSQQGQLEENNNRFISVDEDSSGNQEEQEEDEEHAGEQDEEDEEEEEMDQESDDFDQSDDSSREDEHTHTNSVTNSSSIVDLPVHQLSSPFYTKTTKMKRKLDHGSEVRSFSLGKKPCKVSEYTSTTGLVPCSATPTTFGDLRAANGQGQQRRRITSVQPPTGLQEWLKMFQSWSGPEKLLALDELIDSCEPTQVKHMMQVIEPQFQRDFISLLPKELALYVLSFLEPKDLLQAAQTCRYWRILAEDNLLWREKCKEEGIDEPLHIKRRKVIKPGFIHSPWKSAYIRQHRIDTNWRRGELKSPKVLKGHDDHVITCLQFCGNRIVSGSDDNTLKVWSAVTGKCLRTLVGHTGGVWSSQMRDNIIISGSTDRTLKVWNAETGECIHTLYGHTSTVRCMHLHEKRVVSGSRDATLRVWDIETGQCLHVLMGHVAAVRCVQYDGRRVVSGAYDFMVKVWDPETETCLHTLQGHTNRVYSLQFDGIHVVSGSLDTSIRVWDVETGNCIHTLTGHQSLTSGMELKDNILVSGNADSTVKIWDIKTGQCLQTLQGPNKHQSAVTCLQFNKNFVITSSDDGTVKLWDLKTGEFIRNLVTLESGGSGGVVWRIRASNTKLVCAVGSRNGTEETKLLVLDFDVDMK

As for Cul1 (from UniProt Q13616), the Kd is 1 pM.
